Experimental data as given in patent US20140294821.

What was measured:
[1] = tested on: rBDD FVIII (recombinant B-domain deleted FVIII lacking Fc moieties)
[2] = tested on: single chain rFVIIIFc (purified non-processed isoform of rFVIIIFc)
[3] = tested on: rFVIIIFc (recombinant B-domain deleted human FVIII-Fc monomer hybrid), drug substance

activated protein C
FXa generation rate after thrombin activation and incubation with APC [1]: Treatment with APC for 90 min led to a significant decrease in FXa generation rates, similar to non-activated samples, and these results were similar for rFVIIIFc DS, rBDD FVIII, and single chain rFVIIIFc
FXa generation rate after thrombin activation and incubation with APC [2]: Treatment with APC for 90 min led to a significant decrease in FXa generation rates, similar to non-activated samples, and these results were similar for rFVIIIFc DS, rBDD FVIII, and single chain rFVIIIFc
FXa generation rate after thrombin activation and incubation with APC [3]: Treatment with APC for 90 min led to a significant decrease in FXa generation rates, similar to non-activated samples, and these results were similar for rFVIIIFc DS, rBDD FVIII, and single chain rFVIIIFc

activated Factor IX
FXa generation rate (nM/min) against FIXa concentration (Xase complex on phospholipid vesicles) [1]: BDD FVIII (triangles, solid Kd fits, two runs): rate rises from about 0.2 nM/min at about 0.25 nM FIXa to about 2.5 to 2.7 nM/min at about 5.6 nM, points at 8 nM about 2.0 to 2.1; the fits still rise at 8 nM (about 2.5 to 2.6), no upper plateau in the range shown
Km (nM) (called Kd in the text) of FXa generation rate as a function of FIXa concentration (thrombin-activated FVIII, 25% PS-75% PC vesicles) [1]: 2.5 nM
Vmax (nM/min) of FXa generation rate as a function of FIXa concentration [1]: 4 nM/min
FXa generation rate (nM/min) against FIXa concentration (Xase complex on phospholipid vesicles) [3]: FVIIIFc (circles, dashed Kd fits, two runs): rate rises from about 0.2 nM/min at about 0.25 nM FIXa to about 2.8 to 3.2 nM/min at 4 to 8 nM; the fits still rise at 8 nM (about 3.3), no upper plateau in the range shown

human α-thrombin
loss of SPR response of vWF-bound rBDD FVIII after α-thrombin (double reference-subtracted release phase) [1]: response falls faster and deeper with rising α-thrombin (0.005 to 20 U/mL): at 20 U/mL to about -415 RU at 120 s at 25 °C and to about -425 RU at 37°C; the lowest concentrations stay within about -60 RU of 0
release rate (RU/s) of rBDD FVIII from immobilized vWF against time, by α-thrombin concentration [1]: peak release rate grows and comes earlier with rising α-thrombin: uppermost trace (20 U/mL) peaks at about 105 RU/s near 2 s at 25 °C and at about 157 RU/s near 2 s at 37 °C
release rate (RU/s) of SC rFVIIIFc from immobilized vWF against time, by α-thrombin concentration [2]: peak release rate grows with rising α-thrombin: uppermost trace (20 U/mL) peaks at about 112 RU/s near 3 s at 37°C; the 25 °C panel as drawn peaks at about 145 RU/s near 3 s and looks the same as the rFVIIIFc 25 °C panel, which does not agree with Figure 16E (about 82 RU/s at 20 U/mL)
release rate (RU/s) of rFVIIIFc from immobilized vWF against time, by α-thrombin concentration [3]: peak release rate grows and comes earlier with rising α-thrombin: uppermost trace (20 U/mL) peaks at about 145 RU/s near 3 s at 25 °C and at about 205 RU/s near 2 s at 37 °C
